In assay [1] the target is T1, mTNFRII (Sinobioologicals Cat No. 50128 M08H) (mouse, UniProt P25119 23-258, limits assumed).
T1 construct: bought
T1 sequence (looked up): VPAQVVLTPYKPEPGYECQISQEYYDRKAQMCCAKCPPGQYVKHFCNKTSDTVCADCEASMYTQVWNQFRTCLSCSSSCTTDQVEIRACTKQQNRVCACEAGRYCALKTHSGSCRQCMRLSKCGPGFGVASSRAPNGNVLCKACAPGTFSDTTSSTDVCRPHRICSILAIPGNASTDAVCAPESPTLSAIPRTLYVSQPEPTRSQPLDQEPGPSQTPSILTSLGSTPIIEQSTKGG
As to the kind of experiment: blocking ELISA, coated mTNFRII, competitor mTNF-α 2 nM. As for the experimental part: (§1) 96-well plates were coated with hTNFRII (Sinobioologicals Cat nr10414-H08H) or mTNFRII (Sinobioologicals Cat No. 50128 M08H) at 2.5 pmol/well in ELISA coating buffer (0.1 M sodium carbonate pH 9.5) and incubated overnight at 4° C. After washing in ELISA wash buffer (PBS with 0.05% Tween20), the plates were incubated under slow agitation for 1 h in room temperature with n-CoDeR® mAbs at 10 μg/ml (one-dose ELISA) or 33 nM and subsequent 1:2 dilutions (titration ELISA) in block buffer containing 0.45% fish gelatin. […] Thereafter, plates were washed. For the human ELISAs, Streptavidin-HRP (Jackson Cat No. 016-030-084) diluted 1:2000 in block buffer were added and again incubated for 1 h at room temperature followed by washes first in ELISA buffer and then in Tris buffer (pH 9.8). The substrate (Super Signal ELISA Pico from Thermo Scientific Cat. No. 37069) were thereafter diluted according to the manufacturers instruction, added to the wells and incubated in darkness for 10 min before reading in a Tecan Ultra. […] After washing, anti-Rabbit-HRP diluted 1:10 000 in block buffer was added and again incubated for 1 h at room temperature. Substrate adding and reading were performed as above.

In assay [2] the target is T2, recombinant mouse TNFR2-Fc protein (Sino Biological) (mouse, UniProt P25119 23-258, limits assumed).
T2 construct: bought; also called mTNFR2 protein; mTNFR2; not shown: Fc part of the bought fusion protein; not described
T2 sequence (looked up): T1 sequence (looked up)
Nature of the assay: ELISA, coated TNFR2-Fc. The protocol: (§2) 96-well plates (Lumitrac 600 LIA plate, Greiner) were coated overnight at 4° C. with recombinant human or mouse TNFR2-Fc protein (Sino Biological) at 1 pmol/well. After washing, titrated doses of anti-TNFR2 mAbs from 20 μg/ml to 0.1 ng/ml (133 nM to 1 pM) were allowed to bind for 1 hour. Plates were then washed again, and bound antibodies were detected with an anti-human-F(ab)-HRP secondary antibody (Jackson ImmunoResearch) diluted in 50 ng/ml. Super Signal ELISA Pico (Thermo Scientific) was used as substrate and the plates were analyzed using Tecan Ultra Microplate reader.
A general note: In an ELISA, binding on a coated surface is turned into a signal by an enzyme label.

Assay [3] deals with T3, wild type, full length murine TNFR2 (on cells) (mouse, UniProt P25119 23-474).
T3 construct: whole, on cells; also called mTNFR2; mouse TNFR2
T3 sequence (looked up): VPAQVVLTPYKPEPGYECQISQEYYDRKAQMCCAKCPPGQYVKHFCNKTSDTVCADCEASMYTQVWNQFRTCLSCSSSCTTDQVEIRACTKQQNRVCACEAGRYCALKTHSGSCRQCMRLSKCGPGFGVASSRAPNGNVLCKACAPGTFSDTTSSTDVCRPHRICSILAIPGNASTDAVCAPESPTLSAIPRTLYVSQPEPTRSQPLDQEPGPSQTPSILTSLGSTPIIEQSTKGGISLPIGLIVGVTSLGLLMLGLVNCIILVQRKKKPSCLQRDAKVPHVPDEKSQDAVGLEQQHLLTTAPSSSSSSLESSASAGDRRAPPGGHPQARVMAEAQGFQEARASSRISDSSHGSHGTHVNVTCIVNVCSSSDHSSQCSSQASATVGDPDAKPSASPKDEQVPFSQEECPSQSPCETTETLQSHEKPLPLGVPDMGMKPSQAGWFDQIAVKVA
Nature of the assay: FACS, activated mouse CD4+ T cells.

Assay [4] has as its target T1, mTNFRII (Sinobioologicals Cat No. 50128 …). As to the kind of experiment: ELISA, coated mTNFRII, mTNF-α 2 nM, rabbit anti-mTNF-α and anti-rabbit-HRP. The protocol: as §1
The target of assay [5] is T4, wild type, full length human TNFR2 (on cells) (human, UniProt P20333 23-461).
T4 construct: whole, on cells; also called hTNFR2; TNFRII
T4 sequence (looked up): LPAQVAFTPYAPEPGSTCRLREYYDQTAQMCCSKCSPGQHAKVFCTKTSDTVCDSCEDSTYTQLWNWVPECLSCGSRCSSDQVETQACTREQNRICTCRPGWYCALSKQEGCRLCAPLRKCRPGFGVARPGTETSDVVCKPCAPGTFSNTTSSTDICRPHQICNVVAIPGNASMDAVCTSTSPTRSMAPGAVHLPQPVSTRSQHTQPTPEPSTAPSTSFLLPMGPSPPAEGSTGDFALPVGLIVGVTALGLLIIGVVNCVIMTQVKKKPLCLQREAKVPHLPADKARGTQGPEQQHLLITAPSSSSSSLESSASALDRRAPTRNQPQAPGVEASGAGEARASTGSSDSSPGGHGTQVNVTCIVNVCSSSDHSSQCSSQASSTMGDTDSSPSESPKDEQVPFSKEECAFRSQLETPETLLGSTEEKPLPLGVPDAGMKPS
As to the kind of experiment: FACS, activated CD4+ T cells. As for the experimental part:
(§3) The ability and affinity of TNFR2 n-CoDeR® antibodies to bind TNFR2 expressed on cells were obtained using in vitro activated CD4⁺ T cells. Human CD4⁺ T cells were stimulated with 50 ng/ml rhIL-2 (R&D systems) and Dynabeads® T-Activator CD3/CD28 for T-Cell Expansion and Activation (Gibco) 2-3 days at 37 degrees. […] Cells were then incubated with an APC conjugated a-human IgG secondary ab (Jackson) followed by analysis by flow cytometry (FACSVerse, BD).
(Flow cytometry measures light scatter and fluorescence of single cells or particles in a stream.)

Assay [6] concerns the target T5, hTNFRII (Sinobioologicals Cat nr10414-H08H) (human, UniProt P20333 23-257).
T5 construct: bought; also called immobilized TNFR2
T5 sequence (looked up): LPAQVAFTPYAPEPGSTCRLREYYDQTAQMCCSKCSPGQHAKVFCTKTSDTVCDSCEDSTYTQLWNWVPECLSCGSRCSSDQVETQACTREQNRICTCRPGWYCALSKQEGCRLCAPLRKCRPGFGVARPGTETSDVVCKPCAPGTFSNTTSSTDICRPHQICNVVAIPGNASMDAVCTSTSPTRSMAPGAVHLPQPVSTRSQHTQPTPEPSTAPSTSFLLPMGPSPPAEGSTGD
Nature of the assay: blocking ELISA, coated hTNFRII, competitor hTNF-α-bio 5 nM. As for the experimental part:
as §1

Assay [7] deals with T6, recombinant human TNFR2-Fc protein (Sino Biological) (human, UniProt P20333 23-257, limits assumed).
T6 construct: bought; also called human TNFR2 protein; not shown: Fc part of the bought fusion protein; not described
T6 sequence (looked up): T5 sequence (looked up)
As to the kind of experiment: ELISA, coated TNFR2-Fc. As for the experimental part:
as §2

The target in assay [8] is T4, wild type, full length human TNFR2 (on …). Nature of the assay: FACS, activated CD4+ T cells. As for the experimental part:
as §3
The source holds these as a separate data set.

Assay [9] deals with T7, Cynomolgus TNFR2 (on cynomolgus CD4+ T cells) (cynomolgus monkey (Macaca fascicularis), UniProt A0A2K5VET2 132-571).
T7 construct: whole, on cells; also called cmTNFR2; cynoTNFR2
T7 sequence: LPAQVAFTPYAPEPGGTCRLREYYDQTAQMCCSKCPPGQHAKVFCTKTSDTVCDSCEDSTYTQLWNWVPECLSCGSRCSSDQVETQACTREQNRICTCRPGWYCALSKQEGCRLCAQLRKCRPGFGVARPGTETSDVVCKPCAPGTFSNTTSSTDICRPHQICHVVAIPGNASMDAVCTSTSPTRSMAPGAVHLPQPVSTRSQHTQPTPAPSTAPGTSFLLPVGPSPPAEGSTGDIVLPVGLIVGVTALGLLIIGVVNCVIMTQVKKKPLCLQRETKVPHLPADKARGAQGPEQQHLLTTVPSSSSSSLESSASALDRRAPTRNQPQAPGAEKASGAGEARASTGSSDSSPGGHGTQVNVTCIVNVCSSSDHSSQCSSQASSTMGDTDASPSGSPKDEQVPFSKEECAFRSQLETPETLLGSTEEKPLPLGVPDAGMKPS
Nature of the assay: FACS, stimulated cynomolgus CD4+ T cells, % over isotype. As for the experimental part: To validate the cross-reactivity of TNFR2 antibodies to Cynomolgus, Cynomolgus CD4⁺ T cells were stimulated 2 days with 50 ng/ml PMA (Sigma) and 100 ng/ml lonomycin (Sigma). Cells were incubated with TNFR2 specific n-CoDeR® antibodies at 3 different concentrations (0.1, 1 and 10 μg/ml) and then incubated with an APC conjugated secondary a-human IgG reagent (Jackson).

Read-outs that look alike come from different tables or passages of the source.

B1: 003-F10 (antibody, V domains shown)
VH: EVQLLESGGGLVQPGGSLRLSCAASGFTFSDAWMTWVRQAPGKGLEWVSDLSDSGGSTYYADSVKGRFTISRDNSKNTLYLQMNSLRAEDTAVYYCGRLAAGGPVDYWGQGTLVTVSS
VL: QSVLTQPPSASGTPGQRVTISCTGSSSNIGAGYDVHWYQQLPGTAPKLLIYSNNQRPSGVPDRFSGSKSGTSASLAISGLRSEDEADYYCSVWDDSLNSWVFGGGTKLTVLG
notes: also called 3-F10 (mouse)
For the molecule B1, the EC50 in assay [1] is 1.9 nM; in [2], 0.97 nM; in assay [3], 0.072 nM.

B2: mTNF-α (Gibco Cat. No. PMC3014) (ligand, mouse, UniProt P06804 80-235, looked up)
chain: LRSSSQNSSDKPVAHVVANHQVEEQLEWLSQRANALLANGMDLKDNQLVVPADGLYLVYSQVLFKGQGCPDYVLLTHTVSRFAISYQEKVNLLSAVKSPCPKDTPEGAELKPWYEPIYLGGVFQLEKGDQLSAEVNLPKYLDFAESGQVYFGVIAL
B2: the binding result in assay [4] was “binds”.

B3: 004-H02 (antibody, V domains shown)
VH: EVQLLESGGGLVQPGGSLRLSCAASGFTFDDYGMSWVRQAPGKGLEWVSTIYSGDNAYYGASVRGRFTISRDNSKNTLYLQMNSLRAEDTAVYYCARVYSSSWRKRAFDIWGQGTLVTVSS
VL: not shown
notes: IgG
Turning to B3, the half-maximal effective concentration (EC50) is 0.6 nM in assay [5], 0.4 nM in assay [6], 0.2 nM in assay [7] and 0.59 nM in assay [8].

B4: 001-G04 (antibody, V domains shown)
VH: EVQLLESGGGLVQPGGSLRLSCAASGFTFNTYSMNWVRQAPGKGLEWVSVLYSDDDTHYADSVKGRFTISRDNSKNTLYLQMNSLRAEDTAVYYCARDCGGDCHSGDDAFDIWGQGTLVTVSS
VL: not shown
notes: IgG
Take B4: the EC50 was 3.2 nM in assay [6], 1.7 nM in assay [7] and 18 nM in assay [8]. The binding result in assay [9] is listed as “no binding (tested: 10 µg/ml)”.

B5: 001-C03 (antibody, V domains shown)
VH: EVQLLESGGGLVQPGGSLRLSCAASGFTFSNAWMSWVRQAPGKGLEWVSAISVSGINTYYADSVKGRFTISRDNSKNTLYLQMNSLRAEDTAVYYCARDTGSLGVDYWGQGTLVTVSS
VL: QSVLTQPPSASGTPGQRVTISCSGSSSNIGSNTVNWYQQLPGTAPKLLIYRNNQRPSGVPDRFSGSKSGTSASLAISGLRSEDEADYYCQSYDSSLSISVFGGGTKLTVLG
notes: IgG; also called 1-003; 001-0O3
Consider B5, for which the values for the EC50 in [5], in assay [7] and in [8] were 52.7 nM, 0.75 nM and 53 nM, respectively.

The EC50 is the concentration giving half of the maximal effect.
